Data set [1] concerns the target T1, full-length SFPQ (splicing factor proline- and glutamine-rich) (Homo sapiens), P23246.
T1 chain: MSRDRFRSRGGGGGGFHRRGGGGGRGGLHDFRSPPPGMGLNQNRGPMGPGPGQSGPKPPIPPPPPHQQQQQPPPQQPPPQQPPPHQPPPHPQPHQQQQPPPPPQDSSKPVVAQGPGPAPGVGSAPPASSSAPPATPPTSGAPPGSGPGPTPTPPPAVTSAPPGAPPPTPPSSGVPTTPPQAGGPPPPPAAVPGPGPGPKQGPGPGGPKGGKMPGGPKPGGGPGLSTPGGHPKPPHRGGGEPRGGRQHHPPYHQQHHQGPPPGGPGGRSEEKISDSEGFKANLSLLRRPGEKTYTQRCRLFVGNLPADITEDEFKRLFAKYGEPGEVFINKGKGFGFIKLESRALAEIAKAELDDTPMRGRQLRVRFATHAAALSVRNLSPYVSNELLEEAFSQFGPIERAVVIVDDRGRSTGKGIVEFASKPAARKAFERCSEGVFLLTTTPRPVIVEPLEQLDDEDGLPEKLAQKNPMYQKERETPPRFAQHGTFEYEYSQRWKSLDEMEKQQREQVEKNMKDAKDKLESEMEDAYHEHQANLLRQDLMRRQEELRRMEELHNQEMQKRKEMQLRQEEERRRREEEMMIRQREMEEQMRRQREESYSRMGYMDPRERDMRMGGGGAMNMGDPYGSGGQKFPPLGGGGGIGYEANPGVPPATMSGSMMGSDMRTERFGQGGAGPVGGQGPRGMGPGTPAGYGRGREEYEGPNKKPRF
Nature of the data set: SANS; static cell, 1:20 hSFPQ:dSFPQ at 0.63 mg/ml, no match-out, 150 mM KCl, 1.5% glycerol, 20 mM HEPES, 1 mM DTT pH 7.4 in H2O. The note with it: remark: other sources report otherwise.

Data set [2] has as its target T1, full-length SFPQ (splicing factor …). As to the kind of experiment: SEC-SAXS; inline SEC-SAXS co-flow, Superdex 200 5/150, 500 mM KNO3, 20 mM HEPES pH 7.4, 5% glycerol, 1 mM DTT, 25 °C; injected at 4.2 mg/ml (full length) or 5 mg/ml (1–598). The note with it: remark: other sources report otherwise. (Size exclusion chromatography separates by hydrodynamic size, large species first.)

Data set [3] deals with the molecule itself. Nature of the data set: SEC-SAXS; inline SEC-SAXS co-flow, Superdex 200 5/150, low salt: 150 mM KCl, 20 mM HEPES pH 7.4, 5% glycerol, 5 mM MgCl2, 1 mM DTT, 25 °C; injected at 4.91 mg/ml.
Data set [4] deals with the molecule itself. As to the kind of experiment: SEC-SAXS; inline SEC-SAXS co-flow, Superdex 200 5/150, 500 mM KNO3, 20 mM HEPES pH 7.4, 5% glycerol, 1 mM DTT, 25 °C; injected at 4.2 mg/ml (full length) or 5 mg/ml (1–598).

B1: full-length SFPQ (splicing factor proline- and glutamine-rich), P23246 1-707 (natural protein)
chain: MSRDRFRSRGGGGGGFHRRGGGGGRGGLHDFRSPPPGMGLNQNRGPMGPGPGQSGPKPPIPPPPPHQQQQQPPPQQPPPQQPPPHQPPPHPQPHQQQQPPPPPQDSSKPVVAQGPGPAPGVGSAPPASSSAPPATPPTSGAPPGSGPGPTPTPPPAVTSAPPGAPPPTPPSSGVPTTPPQAGGPPPPPAAVPGPGPGPKQGPGPGGPKGGKMPGGPKPGGGPGLSTPGGHPKPPHRGGGEPRGGRQHHPPYHQQHHQGPPPGGPGGRSEEKISDSEGFKANLSLLRRPGEKTYTQRCRLFVGNLPADITEDEFKRLFAKYGEPGEVFINKGKGFGFIKLESRALAEIAKAELDDTPMRGRQLRVRFATHAAALSVRNLSPYVSNELLEEAFSQFGPIERAVVIVDDRGRSTGKGIVEFASKPAARKAFERCSEGVFLLTTTPRPVIVEPLEQLDDEDGLPEKLAQKNPMYQKERETPPRFAQHGTFEYEYSQRWKSLDEMEKQQREQVEKNMKDAKDKLESEMEDAYHEHQANLLRQDLMRRQEELRRMEELHNQEMQKRKEMQLRQEEERRRREEEMMIRQREMEEQMRRQREESYSRMGYMDPRERDMRMGGGGAMNMGDPYGSGGQKFPPLGGGGGIGYEANPGVPPATMSGSMMGSDMRTERFGQGGAGPVGGQGPRGMGPGTPAGYGRGREEYEGPNKKPRF
Regarding B1, the stoichiometry N in data set [1] and in data set [2] was 2 throughout.

B2: SFPQ residues 1–598 (domain or fragment, Homo sapiens, UniProt P23246 1-598, looked up)
chain: MSRDRFRSRGGGGGGFHRRGGGGGRGGLHDFRSPPPGMGLNQNRGPMGPGPGQSGPKPPIPPPPPHQQQQQPPPQQPPPQQPPPHQPPPHPQPHQQQQPPPPPQDSSKPVVAQGPGPAPGVGSAPPASSSAPPATPPTSGAPPGSGPGPTPTPPPAVTSAPPGAPPPTPPSSGVPTTPPQAGGPPPPPAAVPGPGPGPKQGPGPGGPKGGKMPGGPKPGGGPGLSTPGGHPKPPHRGGGEPRGGRQHHPPYHQQHHQGPPPGGPGGRSEEKISDSEGFKANLSLLRRPGEKTYTQRCRLFVGNLPADITEDEFKRLFAKYGEPGEVFINKGKGFGFIKLESRALAEIAKAELDDTPMRGRQLRVRFATHAAALSVRNLSPYVSNELLEEAFSQFGPIERAVVIVDDRGRSTGKGIVEFASKPAARKAFERCSEGVFLLTTTPRPVIVEPLEQLDDEDGLPEKLAQKNPMYQKERETPPRFAQHGTFEYEYSQRWKSLDEMEKQQREQVEKNMKDAKDKLESEMEDAYHEHQANLLRQDLMRRQEELRRMEELHNQEMQKRKEMQLRQEEERRRREEEMMIRQREMEEQMRRQREESYS
notes: The GFP tag was removed with TEV protease; that the His tag left with it is surmised from the second nickel column
On to B2, for which the “stoichiometry N” value in data set [3] and in data set [4] was 2 throughout.

The values above are taken from publication PMC12216677, “Structural dynamics of IDR interactions in human SFPQ and implications for liquid–liquid phase separation” (Acta Crystallographica Section D: Structural Biology, 2025).
